In the assay the target is Recombinant Human-FGFR2-His protein (human) (UniProt P21802). The assay can be described thus: ELISA, Human-FGFR2-His coated, anti-human Fc-HRP detection.

The text below walks through data of patent EP4722254A1.

Recombinant Human-FGFR2-His protein (human), sequence (P21802 other isoform, or with tags, fused parts or gaps limits assumed): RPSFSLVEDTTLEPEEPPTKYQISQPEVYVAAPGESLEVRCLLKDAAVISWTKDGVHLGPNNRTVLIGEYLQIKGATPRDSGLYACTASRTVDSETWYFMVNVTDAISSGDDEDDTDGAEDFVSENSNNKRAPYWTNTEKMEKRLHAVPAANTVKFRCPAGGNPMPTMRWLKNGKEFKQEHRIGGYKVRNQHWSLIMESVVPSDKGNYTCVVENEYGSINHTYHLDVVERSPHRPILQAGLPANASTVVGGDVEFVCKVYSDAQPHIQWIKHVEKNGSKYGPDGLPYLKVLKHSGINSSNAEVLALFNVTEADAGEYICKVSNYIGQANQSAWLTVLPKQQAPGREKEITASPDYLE

B1: anti-FGFR2/PD-1 bispecific antibody c (bispecific antibody, part only; not given: anti-PD-1 constant regions, part only)
heavy, part: EVKLVESGGGLVQPGGSLRLSCAASGFAFSSYDMSWVRQAPGKRLEWVATISGGGRYTYYPDTVKGRFTISRDNAKNSHYLQMNSLRAEDTAVYFCASPYGGYFDVWGQGTLVTVSSGGGGSGGGGSGGGGSQVQLVQSGAEVKKPGSSVKVSCKASGYTFTSYWMHWVRQAPGQGLEWMGAIYPGNSDTDYSGKFKGRVTITADESTSTAYMELSSLRSEDTAVYYCSKFDYWGQGTLVTVSSGGGGSGGGGSGGGGSGGGGSEIVLTQSPATLSLSPGERATLSCRASSSVNYMYWYQQKPGQAPRPWIYLTSNRATGVPARFSGSGSGTDYTLTISSLEPEDFAVYYCQQWSSNPYTFGQGTKLEIKRTV
light, part: EIVLTQSPATLSLSPGERATLSCRASQSISNFLHWYQQKPGQAPRLLIKYASQSISGIPARFSGSGSGTDFTLTISSLEPEDFAVYFCQQSNSWPHTFGQGTKVEIK
Take B1: the 50% effective concentration (EC50) was determined as 0.624 nM.
